# Measured values taken from patent US20040146964A1 (ISIS INNOVATION, published 2004).
# Changes are numbered by the printed parent chain. Names and notes keep the numbering of the source. Where no end group is shown, it is not given here. [ ]: non-standard residue; d: D form. Hyp = O=C(O)[C@@H]1C[C@@H](O)CN1
# T1: C. elegans HIF P621G mutant (C. elegans, UniProt G5EGD2 1-719)
# T1 construct: also called ceHIF Pro621-Gly; pcDNA1cehif.P621G
# T1 sequence: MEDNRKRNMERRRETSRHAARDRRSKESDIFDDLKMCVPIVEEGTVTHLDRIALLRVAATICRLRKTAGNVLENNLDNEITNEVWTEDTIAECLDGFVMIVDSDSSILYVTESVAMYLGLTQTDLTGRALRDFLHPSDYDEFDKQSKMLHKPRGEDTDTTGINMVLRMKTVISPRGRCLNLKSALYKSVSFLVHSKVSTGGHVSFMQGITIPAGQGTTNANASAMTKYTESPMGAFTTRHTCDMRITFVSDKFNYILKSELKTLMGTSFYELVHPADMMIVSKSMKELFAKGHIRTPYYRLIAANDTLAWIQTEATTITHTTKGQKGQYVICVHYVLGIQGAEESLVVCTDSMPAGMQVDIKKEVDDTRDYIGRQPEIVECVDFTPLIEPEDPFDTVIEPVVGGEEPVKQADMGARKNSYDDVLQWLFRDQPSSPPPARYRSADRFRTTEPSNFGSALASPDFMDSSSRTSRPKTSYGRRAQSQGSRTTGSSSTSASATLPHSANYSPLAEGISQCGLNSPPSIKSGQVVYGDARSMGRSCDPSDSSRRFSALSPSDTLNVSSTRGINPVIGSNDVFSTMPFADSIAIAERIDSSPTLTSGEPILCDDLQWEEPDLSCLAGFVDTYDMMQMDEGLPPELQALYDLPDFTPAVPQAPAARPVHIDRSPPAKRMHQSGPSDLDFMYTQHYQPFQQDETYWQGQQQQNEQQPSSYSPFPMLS
# T2: C. elegans HIF-α homologue, wild type (C. elegans, UniProt G5EGD2 1-719)
# T2 construct: 35S-labelled reticulocyte IVTT from pcDNA1cehif; also called ceHIF; HIF-1 (C. elegans)
# T2 sequence: T1 sequence with G621P
# B1: c-terminal HA tagged ceVHL (other, not shown: small tags and cut ends)
# chain: MSDGSMDDDGRLFPDLGSSTHDNREIRVRFLNRCAYPVDVFWLNPSKQPTKYGTLAQKKYLDIKTFKDHPWVARRSFDGCKVLVNEKEVFWPEPAPRMNLIVRNHCVITMKVQSLREIAGRSFLRHNPTEVPNKIKGLPRELQFEVKHFLDRKQEYSEIVCRSIPPPGPQRPQQ
# notes: also called ceVHL-HA
# B2: tat-NODD proline mutant (HIF-1α 343-417/P402A) (other)
# chain: SGIIQHDLIFSLQQTECVLKPVESSDMKMTQLFTKVESEDTSSLFDKLKKEPDALTLLAAAAGDTIISLDFGSND
# Assays:
# [1] = target: T1, C. elegans HIF P621G mutant; experiment: anti-HA co-IP of IVTT products
# Protocol: (§1) For interaction assays 1 μl of each programmed lysate was mixed in EBC buffer at 4° C. for 1 hr before anti-HA immunoprecipitation as described in Cockman et al. Pretreatment of ceHIF with worm extract was for 30 min at 25° C. with 10 μI of extract derived by hypotonic extraction of a worm homogenate in 20 mM Tris pH7.5, 5 mMKCl, 1.5 MgCl2, 1 mMDTT.
# [2] = target: T2, C. elegans HIF-α homologue, wild type; experiment: anti-HA co-IP of reticulocyte IVTTs, ceHIF pre-treated with worm extract
# Protocol: as §1
# mutant (Pro86His) pVHL [3] = target: T3, mutant (Pro86His) pVHL (human, UniProt P40337 1-213); experiment: biotinylated peptide capture on streptavidin beads
# T3 construct: also called mutant pVHL
# T3 sequence (P40337 whole entry P86H): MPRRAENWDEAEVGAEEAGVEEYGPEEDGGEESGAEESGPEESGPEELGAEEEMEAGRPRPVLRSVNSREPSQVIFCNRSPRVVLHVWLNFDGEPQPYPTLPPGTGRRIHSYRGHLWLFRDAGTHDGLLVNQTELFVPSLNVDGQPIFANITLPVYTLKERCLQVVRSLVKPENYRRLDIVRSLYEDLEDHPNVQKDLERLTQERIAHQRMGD
# Protocol: (§2) The 19:WT polypeptide was either incubated with cell extract before the binding assay or was untreated.
# mutant (Pro86His) pVHL [4] = target: T3, mutant (Pro86His) pVHL; experiment: biotinylated peptide, after cell extract, capture on streptavidin beads
# Protocol: as §2
# [5] = target: T4, VHL E3 ubiquitin ligase complex containing HA tagged human pVHL (human, UniProt P40337 1-213); experiment: VHL E3 interaction assay with 35S-labelled IVTT product
# T4 construct: also called VHL E3 ligase; 786-0/VHL cell extract
# T4 sequence (P40337 whole entry, one chain of several): as the sequence (P40337 whole entry P86H) above, with H86P counted along it
binder,measurement,setting,value
B1,binding result,[1],no binding
same,binding result,[2],binds
"DLDLEMLA[Hyp]YIPMDDDFQL (also: biotinylated version used in pVHL capture assays, also called 19:Pro564Hyp; B19Hyp)",binding result,mutant (Pro86His) pVHL [3],no binding
"DLDLEMLAPYIPMDDDFQL (also: biotinylated version used in pVHL capture assays, also called 19:WT; 19 WT) [synthetic polypeptide of HIF-1α residues 556-574, unmodified]",binding result,mutant (Pro86His) pVHL [4],no binding
B2,binding result,[5],no binding
PFSTQDTDLDLEMLAGYIPMDDDFQLRSFDQLSP (other) [tat-CODD proline mutant (HIF-1α 549-582/P564G)],binding result,[5],no binding
